T1: bovine lipoprotein lipase (bovine) (UniProt P11151)
T1 sequence: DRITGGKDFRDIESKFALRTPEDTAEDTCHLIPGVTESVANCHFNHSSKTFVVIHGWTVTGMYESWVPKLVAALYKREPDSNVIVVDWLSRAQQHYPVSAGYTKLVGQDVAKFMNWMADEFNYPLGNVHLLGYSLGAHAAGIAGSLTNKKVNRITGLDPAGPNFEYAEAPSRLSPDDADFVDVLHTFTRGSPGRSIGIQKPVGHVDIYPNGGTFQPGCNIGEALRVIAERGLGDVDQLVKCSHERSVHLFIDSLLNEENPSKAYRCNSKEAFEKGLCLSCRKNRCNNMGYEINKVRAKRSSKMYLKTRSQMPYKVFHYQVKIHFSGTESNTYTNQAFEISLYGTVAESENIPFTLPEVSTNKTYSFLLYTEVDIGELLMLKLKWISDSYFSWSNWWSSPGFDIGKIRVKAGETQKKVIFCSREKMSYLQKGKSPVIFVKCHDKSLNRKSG

B1: coiled-coil domain of human ANGPTL4 E15K (residues 1–159) (domain or fragment)
chain: MGPVQSKSPRFASWDKMNVLAHGLLQLGQGLREHAERTRSQLSALERRLSACGSACQGTEGSTDLPLAPESRVDPEVLHSLQTQLKAQNSRIQQLFHKVAQQQRHLEKQHLRIQHLQSQFGLLDHKHLDHEVAKPARRKRLPEMAQPVDPAHNVSRLHRL

Experiments:
[1] = target: coiled-coil domain of wild-type human ANGPTL4 (residues 1–159) (human); assay: SDS-PAGE before and after reduction (disulfide-linked oligomers); Coomassie blue-stained gel of purified ANGPTL4 1–159 before and after reduction and alkylation; optical scanning of lanes of two-fold serial dilutions
[2] = target: T1, bovine lipoprotein lipase (bovine); settings: scale: molecules of LPL per ANGPTL4 molecule per min
[3] = target: T1, bovine lipoprotein lipase (bovine); settings: scale: molecules LPL per ANGPTL4 molecule per min

Row | Molecule | percent of the total protein that is covalent (disulfide-linked) dimer [1] | stoichiometry N [1] | catalytic efficacy of unfolding of LPL's hydrolase domain (pulse-labelling HDX-MS, bimodality of peptide 131–165); 10 µM LPL with 0.25, 0.5 and 1 µM ANGPTL4 1–159, 25°C, early time points [2] | catalytic efficacy of unfolding of LPL's hydrolase domain (pulse-labelling HDX-MS, peptide 131–165); 10 µM LPL with 0.5, 1 and 2 µM ANGPTL4 1–159/E15K, 25°C, linear phases of the progress curves [3]
1 | coiled-coil domain of wild-type human ANGPTL4 (residues 1–159) (domain or fragment) | 10% | 2 | 1.6 | 
2 | B1 |  |  |  | 0.6
